From patent US11597752B2, “Peptides and combination of peptides and scaffolds thereof for use in immunotherapy against colorectal carcinoma (CRC) and other cancers” (priority 2015, dated 2023)

Biological target: HLA-A*02:01 (Homo sapiens, UniProt P04439, D140Y/D185E/D98H/E176V/E277Q/G131W/G231S/I119V/I121R/I166T/I218V/L300P/L318F/N151K/N90K/P208A/P217A/Q86G/Q94H/R138H/R169H/T345S)
Experiment: MHC binding assay (UV-ligand exchange, beta2m ELISA, peptide exchange yield)
Conditions: binding to HLA-A*02:01, β2m ELISA
Source text: Candidate peptides for T cell based therapies according to the present invention were further tested for their MHC binding capacity (affinity). The individual peptide-MHC complexes were produced by UV-ligand exchange, where a UV-sensitive peptide is cleaved upon UV-irradiation, and exchanged with the peptide of interest as analyzed. Only peptide candidates that can effectively bind and stabilize the peptide-receptive MHC molecules prevent dissociation of the MHC complexes. To determine the yield of the exchange reaction, an ELISA was performed based on the detection of the light chain (β2m) of stabilized MHC complexes. The assay was performed as generally described in Rodenko et al. (Rodenko et al., 2006).
96 well MAXISorp plates (NUNC) were coated over night with 2 ug/ml streptavidin in PBS at room temperature, washed 4× and blocked for 1 h at 37° C. in 2% BSA containing blocking buffer. Refolded HLA-A*02:01/MLA-001 monomers served as standards, covering the range of 15-500 ng/ml. Peptide-MHC monomers of the UV-exchange reaction were diluted 100 fold in blocking buffer. Samples were incubated for 1 h at 37° C., washed four times, incubated with 2 ug/ml HRP conjugated anti-β2m for 1 h at 37° C., washed again and detected with TMB solution that is stopped with […]. Absorption was measured at 450 nm. Candidate peptides that show a high exchange yield (preferably higher than 50%, most preferred higher than 75%) are generally preferred for a generation and production of antibodies or fragments thereof, and/or T cell receptors or fragments thereof, as they show sufficient avidity to the MHC molecules and prevent dissociation of the MHC complexes.

Substance	Peptide exchange (MHC class I binding score, peptide exchange yield)
82 (QLYEEPDTKL; listed as Homo sapiens) [compound 82]	“++” (≥20% = ++)
83 (LTIEDGIFEV; listed as Homo sapiens) [compound 83]	“+++” (≥50 = +++)
84 (SMVEDITGLRL; listed as Homo sapiens) [compound 84]	“+++” (≥50 = +++)
85 (ILHDINSDGVL; listed as Homo sapiens) [compound 85]	“++” (≥20% = ++)
86 (KVFPGKISV; listed as Homo sapiens) [compound 86]	“++” (≥20% = ++)
87 (LLFDAPDLRL; listed as Homo sapiens) [compound 87]	“+++” (≥50 = +++)
88 (KLDIKVETV; listed as Homo sapiens) [compound 88]	“++++” (≥75% = ++++)
89 (SLIEYEFRV; listed as Homo sapiens) [compound 89]	“+++” (≥50 = +++)
90 (GLLKPGLNVVL; listed as Homo sapiens) [compound 90]	“+++” (≥50 = +++)
91 (TVDVATPSV; listed as Homo sapiens) [compound 91]	“+++” (≥50 = +++)
92 (WIDDTSAFV; listed as Homo sapiens) [compound 92]	“+++” (≥50 = +++)
93 (SLQELRLLL; listed as Homo sapiens) [compound 93]	“++++” (≥75% = ++++)
94 (KSMDIVLTV; listed as Homo sapiens) [compound 94]	“+++” (≥50 = +++)
95 (AILDAHIEV; listed as Homo sapiens) [compound 95]	“++++” (≥75% = ++++)
96 (KLYSRLVYV; listed as Homo sapiens) [compound 96]	“++” (≥20% = ++)
97 (ALWWGVVTV; listed as Homo sapiens) [compound 97]	“++” (≥20% = ++)
98 (AMNGKSFSV; listed as Homo sapiens) [compound 98]	“++” (≥20% = ++)
99 (KLLEVDLDTV; listed as Homo sapiens) [compound 99]	“+++” (≥50 = +++)
100 (SLDDFLATA; listed as Homo sapiens) [compound 100]	“+++” (≥50 = +++)
101 (GLSEGHTFQV; listed as Homo sapiens) [compound 101]	“+++” (≥50 = +++)
102 (KILVSLIEV; listed as Homo sapiens) [compound 102]	“+++” (≥50 = +++)

Substance	Peptide exchange (MHC class I binding score, peptide exchange yield)
103 (FLFGYPKRL; listed as Homo sapiens) [compound 103]	“++” (≥20% = ++)
104 (ILLTIKDDTIYL; listed as Homo sapiens) [compound 104]	“+++” (≥50 = +++)
105 (YALDLSTFL; listed as Homo sapiens) [compound 105]	“+++” (≥50 = +++)
106 (SLISEKILL; listed as Homo sapiens) [compound 106]	“+++” (≥50 = +++)
107 (ALLGGGPYML; listed as Homo sapiens) [compound 107]	“+++” (≥50 = +++)
108 (SLAELVPGVGGI; listed as Homo sapiens) [compound 108]	“+++” (≥50 = +++)
109 (ALDGDQMEL; listed as Homo sapiens) [compound 109]	“++” (≥20% = ++)
110 (LLGELPRLLLL; listed as Homo sapiens) [compound 110]	“+++” (≥50 = +++)
112 (KLGQVLIYL; listed as Homo sapiens) [compound 112]	“++” (≥20% = ++)
113 (ILYDLQQNL; listed as Homo sapiens) [compound 113]	“++” (≥20% = ++)
114 (TAVGHALVL; listed as Homo sapiens) [compound 114]	“+” (≥10% = +)
115 (SLFDVSHML; listed as Homo sapiens) [compound 115]	“+++” (≥50 = +++)
116 (LVYQFVHPI; listed as Homo sapiens) [compound 116]	“++” (≥20% = ++)
117 (TLQPVDNSTISL; listed as Homo sapiens) [compound 117]	“++” (≥20% = ++)
118 (LLADLKTMV; listed as Homo sapiens) [compound 118]	“+++” (≥50 = +++)
119 (ILYQTVTGL; listed as Homo sapiens) [compound 119]	“++” (≥20% = ++)
120 (VLYEGVDEV; listed as Homo sapiens) [compound 120]	“++” (≥20% = ++)
121 (SLAPNIISQL; listed as Homo sapiens) [compound 121]	“+++” (≥50 = +++)
122 (SLMGMVLKL; listed as Homo sapiens) [compound 122]	“+++” (≥50 = +++)
125 (KLGDFGLLVEL; listed as Homo sapiens) [compound 125]	“++++” (≥75% = ++++)
126 (TLAKYLMEL; listed as Homo sapiens) [compound 126]	“+++” (≥50 = +++)

Substance	Peptide exchange (MHC class I binding score, peptide exchange yield)
128 (MLDDRAYLV; listed as Homo sapiens) [compound 128]	“++” (≥20% = ++)
129 (VLIDVLKEL; listed as Homo sapiens) [compound 129]	“+++” (≥50 = +++)
130 (GLGGSQLIDTHL; listed as Homo sapiens) [compound 130]	“++” (≥20% = ++)
131 (KLLDVVHPA; listed as Homo sapiens) [compound 131]	“++” (≥20% = ++)
134 (GVAGGSILKGV; listed as Homo sapiens) [compound 134]	“++++” (≥75% = ++++)
135 (KLQEEIPVL; listed as Homo sapiens) [compound 135]	“++” (≥20% = ++)
136 (KLFDIFSQQV; listed as Homo sapiens) [compound 136]	“+++” (≥50 = +++)
137 (QLTEIKPLL; listed as Homo sapiens) [compound 137]	“+++” (≥50 = +++)
138 (KQFEGTVEI; listed as Homo sapiens) [compound 138]	“+++” (≥50 = +++)
139 (VLLNEILEQV; listed as Homo sapiens) [compound 139]	“+++” (≥50 = +++)
140 (LLNEILEQV; listed as Homo sapiens) [compound 140]	“+++” (≥50 = +++)
143 (KLSDVWKEL; listed as Homo sapiens) [compound 143]	“+++” (≥50 = +++)
144 (LLNDRIWLA; listed as Homo sapiens) [compound 144]	“+++” (≥50 = +++)
145 (LLLEVVKQV; listed as Homo sapiens) [compound 145]	“+++” (≥50 = +++)
146 (ALSDETWGL; listed as Homo sapiens) [compound 146]	“++” (≥20% = ++)
147 (TLTELRAFL; listed as Homo sapiens) [compound 147]	“++++” (≥75% = ++++)
148 (RLLENMTEVV; listed as Homo sapiens) [compound 148]	“+++” (≥50 = +++)
149 (YQFDKVGILTL; listed as Homo sapiens) [compound 149]	“+++” (≥50 = +++)
151 (SAQGSDVSLTACKV; listed as Homo sapiens) [compound 151]	“+++” (≥50 = +++)
